Source: the supplement of paper PMC12764529
± gives the half width of the 95% confidence interval.

assay: folding stability dG unfold from chymotrypsin proteolysis; higher = more stable
Procedure, shortened: (§1)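 Mini-proteins designed to be under 80 residues and free of cysteine were carried in a PA-tagged cDNA display construct and digested with trypsin and with chymotrypsin. Each protease was applied at 11 threefold-diluted concentrations, alongside a no-protease condition, before sequencing. K50 came from Bayesian fitting of the sequencing counts, and unfolding free energy was obtained by comparing it with a sequence-predicted unfolded-state K50 and a shared folded-state K50, for each protease separately or for both together. Designs were retained only if their AlphaFold2 dimer inter-PAE exceeded 15.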

| Sequence | folding stability dG unfold |
| --- | --- |
| MTEEEVRAEAEARARALAEERGVEITAVDIDGEVEQVVETTTRPTPDGRPVTETTSKKIKTKVRATLRPPRS [r1_91_JUSTAS] | 1.39 ± 0.053 kcal/mol |
| SAGGSAGGSAGKLRVRIPPRLRERLRKRKRVRLRLRVEEREVRDEDGNLRRVRRLEIELESAGGSAGGSAGG [r11_113_TrROS_Hall] | 2.03 ± 0.19 kcal/mol |
| SAGGSAGGSTAKEIADKLGFDNVEIKPTKPVEQRKDPNGKWRRQYVYTIKIRNPDGREWTIPISAGGSAGGS [r12_221_TrROS] | 0.449 ± 0.24 kcal/mol |
| SAGGSAGGSAEPPEVRIRLEVRLLPDGTLEVTAEIEVDGKTYRITVTVDAKTNEIVSVSIEPSAGGSAGGSA [r18_459_TrROS_Hall] | 3.89 ± 0.21 kcal/mol |
| SAGGSAGGMVIKIITNAPSLEEAEEIAKRVAAELRERFGGPDVEIVLDVEVIPLPPVPTEDGKPSAGGSAGG [r6_182_TrMRF] | 1.97 ± 0.16 kcal/mol |
| SAGGSAGGSAGKFKLKIKEVHWRENPNGYEQVKVEIKIPGEEKKIWFPPGMSIDQILDQLSAGGSAGGSAGG [r11_1056_TrROS] | 1.13 ± 0.18 kcal/mol |
| SAGGSGMTETIKLSDPKNGLSVTVTVTFDPATGSKSVTITVESSEEAKEKVKALLEEKGLPVTVTSSAGGSA [r2_30_JUSTAS] | 1.55 ± 0.082 kcal/mol |
| SAGDVKIDIHYDEDGYIRVTVPYKSPHEAREEADELARWLAKQFGPKNIDINVEPHPNGMLVIRIPIKKSAG [r5_772_TrROS] | 3.05 ± 0.082 kcal/mol |
| SAGGSAGGSAMTVTITHDVPPDVSVTVTVTSNNKKIPVSTPSRAASATIPSSEVSSLEIVPSSAGGSAGGSA [r18_170_JUSTAS] | 0.792 ± 0.043 kcal/mol |
| SAGGKVKVTVTPDGTVTIEFEAESVEEAIKAAKAFLEEAGFEVESIPVEVPPDGTVKVTAKIKPKNASAGGS [r8_253_TrMRF] | 1.79 ± 0.11 kcal/mol |
| SAGGSAGGMLTFTFSLSEIPPYPSGSLSLEEVKKRMEPILRKLLGRKDVKIKVESLPDGTIRVTVESAGGSA [r15_562_JUSTAS] | 4.99 ± 0.23 kcal/mol |
| SAGGSAPVTEGPNSITVTRDLDPSESEEEVRALAEEILAALPADVSVSVEFDPETGTATITITFPGSAGGSA [r15_210_JUSTAS] | 1.95 ± 0.051 kcal/mol |
| SAGGNIQIHYNPDWGVIRITYMFPSPTEAEDFIKKLLPPGYKIEPIEVERNPDGYYQVSIEIRLPKGASAGG [r13_338_TrROS] | 3.924 ± 0.036 kcal/mol |
| SIKIRKEKTPNGYYEITFEFPFPDGWPMTIEANVQVDPENGKVKVDIKIEDPNLPPEFKEFIENFEFKVPSA [r9_715_TrROS] | 2.97 ± 0.086 kcal/mol |
| SAGGSMAKILEIIPEEKKIVVEFEGDPKTFPLDEIEEIRIEPEKGYLTIKVGDKVYTIPLDDPNDFSAGGSA [r2_48_TrMRF] | 2.25 ± 0.044 kcal/mol |
| SAGGGMSTTTETTIRIYVKDPQGNPVFVAELTVTVTTSPSGEVTIHLPPEFLKALPPNYTIAKIEVTSAGGS [r16_295_JUSTAS] | 4.13 ± 0.086 kcal/mol |

assay: folding stability dG unfold (combined trypsin and chymotrypsin); higher = more stable
Procedure, shortened: as §1

| Sequence | folding stability dG unfold |
| --- | --- |
| SAGGSAGGSAGPPNVKLTFTIMIMEMKMEPPPDGNPKMEMVMVPIEIEITAPPGDEITAISAGGSAGGSAGG [r11_174_TrROS] | 2.93 ± 0.39 kcal/mol |
| SAGGSAGGSAMLYRITVRNADGEKLEIVVEMSEDEVRALAEELRKAGYEVRVEPIPEGEEPSAGGSAGGSAG [r3_35_TrROS_Hall] | 4.8 ± 0.15 kcal/mol |
| SAGGSAGGSAGMTLKVEVKVKVKVFDENGKLVREEEVTVEVEIELEPAPELRFLSEEELKSAGGSAGGSAGG [r17_325_TrROS_Hall] | 2.12 ± 0.11 kcal/mol |
| SAGGRTLEFNMKSNNPNMMENEISKLLRELGFPPGFDIEVNPERDPNGRYTYPITITVDNPELADKISAGGS [r8_85_TrROS] | -0.0764 ± 0.42 kcal/mol |
| SAGGSAGGSPPNWKTIPITFWVDPGDVEEFANILRDLGLEIEDVEVEPNPDGHVWVTITIVIPSAGGSAGGS [r12_905_TrROS] | 3.33 ± 0.18 kcal/mol |
| SAGGSAGGSAGNDVINKKYTYTITETTEEKTPTDDPVSTTITTPIEITVKAPKDEVVIPDSAGGSAGGSAGG [r11_174_JUSTAS] | 0.31 ± 0.22 kcal/mol |
| SANMPPGDWKPINIKVKIERPGGKPEFEYPIYKHPDGMIMIFIHFPIPPGAYKIKIEFPGNGKENEFKFSAG [r14_280_TrROS] | 2.29 ± 0.32 kcal/mol |
| SAGGSAMTITVTEETDPNTDRKTTTVSLSPGVSEEVLEELKAEAEKKGAKLTVYPEEGVVTVVTPESAGGSA [r15_542_JUSTAS] | 0.224 ± 0.17 kcal/mol |
| SAGGMVLVSTPSNRGASSEILKEAAEAISAGDPDKAAELAREYFQKNFPPDEPIKIEIFVDPPVEPESAGGS [r8_48_TrMRF] | 0.662 ± 0.044 kcal/mol |
| SAGGSAGGKRKIEIHIIIPPGMPPEWRKKAIEIAKWFAKTLAQENNREVEIKIEIFVLDGMPPWSAGGSAGG [r6_204_TrROS] | 3.6 ± 0.33 kcal/mol |
| SAGGSATLPEKILEELAAAGYPLEYVTITEVKTEERPGSVVVTVKVEYKVPNSDRIETVNLTVPRPSAGGSA [r15_863_JUSTAS] | 1.73 ± 0.036 kcal/mol |
| SAGGMVTTESTKPYLLPNGTKATLTTTTTLYPDGTVVSPTTFTLTFPDGSSTTTTTTTVTTLASGALSAGGS [r16_505_JUSTAS] | 0.727 ± 0.065 kcal/mol |
| SAGGGSMAASSVTSEEKPLPDGSSLSIPEITRPDNVATLTVEYYDPKTGTKYTFTLTIPISPDDTVTLSAGG [r13_190_JUSTAS] | 1.99 ± 0.15 kcal/mol |
| SAGGSAGGSAGMVLPRPDGSLVVITEHPDGTVTVTFAPPDKPITIEVPKEEPVDIRVFPLSAGGSAGGSAGG [r11_164_TrMRF] | 1.02 ± 0.046 kcal/mol |
| SAGGSAGGMKVLATTEDGEVYLFDLSEFDLSFEEWLNLGEEELAELLRKAFPEKEITLELVEEPSAGGSAGG [r6_164_TrMRF] | 3.02 ± 0.077 kcal/mol |
| MTEEEVRAEAEARARALAEERGVEITAVDIDGEVEQVVETTTRPTPDGRPVTETTSKKIKTKVRATLRPPRS [r1_91_JUSTAS] | 1.09 ± 0.14 kcal/mol |

| Sequence | folding stability dG unfold |
| --- | --- |
| SAGGSAGGSAGKLRVRIPPRLRERLRKRKRVRLRLRVEEREVRDEDGNLRRVRRLEIELESAGGSAGGSAGG [r11_113_TrROS_Hall] | 1.42 ± 0.17 kcal/mol |
| SAGGSAGGSTAKEIADKLGFDNVEIKPTKPVEQRKDPNGKWRRQYVYTIKIRNPDGREWTIPISAGGSAGGS [r12_221_TrROS] | 0.528 ± 0.13 kcal/mol |
| SAGGSAGGSAEPPEVRIRLEVRLLPDGTLEVTAEIEVDGKTYRITVTVDAKTNEIVSVSIEPSAGGSAGGSA [r18_459_TrROS_Hall] | 4.3 ± 0.46 kcal/mol |
| SAGGSAGGMVIKIITNAPSLEEAEEIAKRVAAELRERFGGPDVEIVLDVEVIPLPPVPTEDGKPSAGGSAGG [r6_182_TrMRF] | 1.82 ± 0.092 kcal/mol |
| SAGGSAGGSAGKFKLKIKEVHWRENPNGYEQVKVEIKIPGEEKKIWFPPGMSIDQILDQLSAGGSAGGSAGG [r11_1056_TrROS] | 0.732 ± 0.12 kcal/mol |
| SAGGSGMTETIKLSDPKNGLSVTVTVTFDPATGSKSVTITVESSEEAKEKVKALLEEKGLPVTVTSSAGGSA [r2_30_JUSTAS] | 1.27 ± 0.081 kcal/mol |
| SAGDVKIDIHYDEDGYIRVTVPYKSPHEAREEADELARWLAKQFGPKNIDINVEPHPNGMLVIRIPIKKSAG [r5_772_TrROS] | 2.62 ± 0.12 kcal/mol |
| SAGGSAGGSAMTVTITHDVPPDVSVTVTVTSNNKKIPVSTPSRAASATIPSSEVSSLEIVPSSAGGSAGGSA [r18_170_JUSTAS] | 0.496 ± 0.12 kcal/mol |
| SAGGKVKVTVTPDGTVTIEFEAESVEEAIKAAKAFLEEAGFEVESIPVEVPPDGTVKVTAKIKPKNASAGGS [r8_253_TrMRF] | 1.67 ± 0.14 kcal/mol |
| SAGGSAGGMLTFTFSLSEIPPYPSGSLSLEEVKKRMEPILRKLLGRKDVKIKVESLPDGTIRVTVESAGGSA [r15_562_JUSTAS] | 4.37 ± 0.27 kcal/mol |
| SAGGSAPVTEGPNSITVTRDLDPSESEEEVRALAEEILAALPADVSVSVEFDPETGTATITITFPGSAGGSA [r15_210_JUSTAS] | 2.15 ± 0.055 kcal/mol |
| SAGGNIQIHYNPDWGVIRITYMFPSPTEAEDFIKKLLPPGYKIEPIEVERNPDGYYQVSIEIRLPKGASAGG [r13_338_TrROS] | 3.64 ± 0.063 kcal/mol |
| SIKIRKEKTPNGYYEITFEFPFPDGWPMTIEANVQVDPENGKVKVDIKIEDPNLPPEFKEFIENFEFKVPSA [r9_715_TrROS] | 2.52 ± 0.23 kcal/mol |
| SAGGSMAKILEIIPEEKKIVVEFEGDPKTFPLDEIEEIRIEPEKGYLTIKVGDKVYTIPLDDPNDFSAGGSA [r2_48_TrMRF] | 1.81 ± 0.082 kcal/mol |
| SAGGGMSTTTETTIRIYVKDPQGNPVFVAELTVTVTTSPSGEVTIHLPPEFLKALPPNYTIAKIEVTSAGGS [r16_295_JUSTAS] | 4.06 ± 0.083 kcal/mol |
